The results in this text go back to patent US20160274129.

Sequences and labels used below:
B1: CFP-T7-H3 (protein)
chain: MTSNRADTRVIVVGGGGTIGSSTALHLVRSGYAPANITVLDTFEIPSAQSAGHDLNKIMGIALRNKVDLQMSLEARQMWKEDELFQPFFHNTGRMDCEHTPEGIEDLKKFYQALHDAGAGLEKTHAWLDNEDEILSKMPLLQRDQIQGWKAIWSQDGGWLAAAKAINAIGQFLKERGVKFGFGGAGSFKQPLFDDEGTTCIGVETADGTKYYADKVVLAAGAWSPTLVDLEDQCCSKAWVYAHIQLTPEEAAEYKGVPVVYNGEFGFFFEPDEFGVIKVCDEFPGFSRFKEHQPYGAPSPKRISVPRSHAKHPTDTYPDASEVSIKKAIATFLPRFQDKELFNRALCWCTDTADAALLMCEHPKWKNFILATGDSGHSFKILPNVGKYVVELIEGRLPEEMAYQWRWRPGGDALKSRRAAPPKDLADMPGWKHDPKL
B2: CFP-T7-H2-62Q (protein)
chain: B1 chain with A62Q, F110L
B3: CFP-T7-H25 (protein)
chain: B1 chain with A62D, L63D, D106K, F110L, A113K
B4: CFP-T7-H26 (protein)
chain: B1 chain with A62D, L63H, D106K, F110L, A113K
B5: CFP-T7-H11 (protein)
chain: B1 chain with A62D, D106K, F110L
B6: CFP-T7-H29 (protein)
chain: B1 chain with A62D, L63H, D106K, F110L, A113K, A419K
B7: CFP-T7-H13 (protein)
chain: B1 chain with A62D, F110L, A113K
B8: CFP-T7-H9 (protein)
chain: B1 chain with A62D, R64H, F110L
B9: CFP-T7-H6 (protein)
chain: B1 chain with A62D, F110L
B10: CFP-T7-H4 (protein)
chain: B1 chain with F110Y
B11: CFP-T7-H14 (protein)
chain: B1 chain with A62D, F110L, A113R
B12: CFP-T7-H24 (protein)
chain: B1 chain with A62D, L63A, D106K, F110L, A113K
B13: CFP-T7-H12 (protein)
chain: B1 chain with A62D, D106R, F110L
B14: CFP-T7-H7 (protein)
chain: B1 chain with A62D, R64A, F110L
B15: CFP-T7-H2-62E (protein)
chain: B1 chain with A62E, F110L
B16: CFP-T7-H10 (protein)
chain: B1 chain with A62D, D106A, F110L
B17: CFP-T7-H8 (protein)
chain: B1 chain with A62D, R64E, F110L
B18: CFP-T7-H2-62N (protein)
chain: B1 chain with A62N, F110L
B19: CFP-T7-H1 (protein)
chain: B1 chain with F110Q
B20: CFP-T7-H28 (protein)
chain: B1 chain with A62D, L63H, E102K, D106K, F110L, A113K
B21: CFP-T7-H27 (protein)
chain: B1 chain with A62D, L63K, D106K, F110L, A113K
B22: FAOAo2 (protein)
chain: MTVTKSSSILIIGAGTWGASTALHLGRRGYTNVTVLDPYTVPSAISAGNDVNKIISSGQYSNKKDEIEVNEILAEEAFKGWTTDPLFKPYYHDTGVVMSACSSAGLDRLGIRVRPEEEPDVSEVTKPEHFRQLAPAVLKGNFPGWRGYHIRSNAGWAHARNALVAAIREAEKLGVKFVTGTQGRVITLIFENNDVKGAVTADGKIWRAEQTVLCAGANAAQFLDFKDQLRPTAWTLAHIRLKPEERALYKNLPVIFNIEKGFFFEPDEERGEIKICDEHPGYTNMVKSADGHLTSLPFEKTQIPKESEARVRALLSETMPQLADRPFSFARVCWCADTANREFIIDRHPEHPSLVLGCGASGRGFKYLPSIGNLIVDAIEDKVPEKVHKLTRWSPDIAVDRKWRDTLGRFGGPNRVMDFHDVKEWTNVQNKDTAKL
B23: Cc95FX (protein)
chain: MAPSRANTSVIVVGGGGTIGSSTALHLVRSGYTPSNITVLDAYPIPSSQSAGNDLNKIMGIRLRNKVDLQLSLEARQMWREDDLFKEYFHNTGRLDCAHGEEGLADLRQAYQALLDANAGLEETTEWLDSEDEILKKMPLLSRDQIKGWKAVYSQDGGWLAAAKAINAIGEYLRAQGVKFGFGGAGSFKQPLLAEGVCIGVETVDGTRYYADKVVLAAGAWSPTLVELHEQCVSKAWVYGHIQLTPEEAAEYKNSPVVYNGDVGFFFEPNEHGVIKVCDEFPGFTRFKMHQPFGAKAPKRISVPRSHAKHPTDTIPDASEKSIRKAIATFLPKFTEKELFNRHLCWCTDTADAALLICEHPEWKNFVLATGDSGHSFKLLPNIGKHVVELLEGTLADDLAHAWRWRPGSGDALKSRRSAPAKDLADMPGWKHDDVVKSKL
B24: Cc95FX-62D/63H/106K/110L/113K/353S (protein)
chain: B23 chain with R62D, L63H, D106K, A110L, A113K, A353S

Positions count from the first letter of the chain named.

For this series, the target named is T1, α-fructosyl-valyl-histidyl-leucyl-threonyl-proryl-glutamic acid.
T1 chain: VHLTPE
Take B1: the αF6P oxidation activity (crude enzyme; αFVH oxidation activity = 100) (relative (αFVH = 100)) came out at 0.0298, the αF6P/αFV was 0.000205 and the αF6P/αFVH amounted to 0.000298.
For the protein B2, the αF6P oxidation activity ratio (crude enzyme; CFP-T7-H2 = 100) (relative (CFP-T7-H2 = 100)) is 11.
Turning to B3, the αF6P oxidation activity ratio (crude enzyme; CFP-T7-H20 = 100) (relative (CFP-T7-H20 = 100)) is 24.
For B4, the αF6P oxidation activity (crude enzyme; αFVH oxidation activity = 100) (relative (αFVH = 100)) was found to be 84.3, the αF6P oxidation activity ratio (crude enzyme; CFP-T7-H20 = 100) (relative (CFP-T7-H20 = 100)) was found to be 142, the αF6P/αFV worked out at 0.0773 and the αF6P/αFVH came to 0.843.
Turning to B5, the αF6P oxidation activity (crude enzyme; αFVH oxidation activity = 100) (relative (αFVH = 100)) came to 12.5, the αF6P oxidation activity ratio (crude enzyme; CFP-T7-H6 = 100) (relative (CFP-T7-H6 = 100)) stood at 951, the αF6P/αFV came out at 0.0245 and the αF6P/αFVH stood at 0.125.
Consider B6, for which the αF6P oxidation activity (crude enzyme; αFVH oxidation activity = 100) (relative (αFVH = 100)) came out at 111, the αF6P oxidation activity ratio (crude enzyme; CFP-T7-H26 = 100) (relative (CFP-T7-H26 = 100)) stood at 102, the αF6P/αFV amounted to 0.111 and the αF6P/αFVH stood at 1.11.
Consider B7, for which the αF6P oxidation activity (crude enzyme; αFVH oxidation activity = 100) (relative (αFVH = 100)) stood at 4.33, the αF6P oxidation activity ratio (crude enzyme; CFP-T7-H6 = 100) (relative (CFP-T7-H6 = 100)) was 207, the αF6P/αFV was found to be 0.00579 and the αF6P/αFVH was 0.0433.
Consider B8, for which the αF6P oxidation activity ratio (crude enzyme; CFP-T7-H6 = 100) (relative (CFP-T7-H6 = 100)) was 44.
B9: the αF6P oxidation activity (crude enzyme; αFVH oxidation activity = 100) (relative (αFVH = 100)) stood at 3, the αF6P oxidation activity ratio (crude enzyme; CFP-T7-H2 = 100) (relative (CFP-T7-H2 = 100)) was 513, the αF6P/αFV stood at 0.00347 and the αF6P/αFVH was determined as 0.03.
On to B10, for which the αF6P oxidation activity (crude enzyme; αFVH oxidation activity = 100) (relative (αFVH = 100)) was found to be 0.0341, the αF6P/αFV was 0.000319 and the αF6P/αFVH stood at 0.000341.
For B11, the αF6P oxidation activity (crude enzyme; αFVH oxidation activity = 100) (relative (αFVH = 100)) was 4.22, the αF6P oxidation activity ratio (crude enzyme; CFP-T7-H6 = 100) (relative (CFP-T7-H6 = 100)) amounted to 183, the αF6P/αFV amounted to 0.00519 and the αF6P/αFVH is 0.0422.
Regarding B12, the αF6P oxidation activity (crude enzyme; αFVH oxidation activity = 100) (relative (αFVH = 100)) is 86.7, the αF6P oxidation activity ratio (crude enzyme; CFP-T7-H20 = 100) (relative (CFP-T7-H20 = 100)) is 123, the αF6P/αFV was determined as 0.0461 and the αF6P/αFVH was 0.867.
On to B13, for which the αF6P oxidation activity (crude enzyme; αFVH oxidation activity = 100) (relative (αFVH = 100)) worked out at 11.6, the αF6P oxidation activity ratio (crude enzyme; CFP-T7-H6 = 100) (relative (CFP-T7-H6 = 100)) was found to be 636, the αF6P/αFV is 0.0165 and the αF6P/αFVH is 0.116.
As to B14, the αF6P oxidation activity ratio (crude enzyme; CFP-T7-H6 = 100) (relative (CFP-T7-H6 = 100)) turned out to be 17.
As for B15, the αF6P oxidation activity ratio (crude enzyme; CFP-T7-H2 = 100) (relative (CFP-T7-H2 = 100)) amounted to 21.
With B16, the αF6P oxidation activity ratio (crude enzyme; CFP-T7-H6 = 100) (relative (CFP-T7-H6 = 100)) was 301.
Same read-out and setting: the figure for B17 is 2.
With B18, the αF6P oxidation activity ratio (crude enzyme; CFP-T7-H2 = 100) (relative (CFP-T7-H2 = 100)) stood at 120.
In turn, B19 had a αF6P oxidation activity (crude enzyme; αFVH oxidation activity = 100) (relative (αFVH = 100)) of 0.0316, a αF6P/αFV of 0.000222 and a αF6P/αFVH of 0.000316.
For B20, the αF6P oxidation activity (crude enzyme; αFVH oxidation activity = 100) (relative (αFVH = 100)) came to 134, the αF6P oxidation activity ratio (crude enzyme; CFP-T7-H26 = 100) (relative (CFP-T7-H26 = 100)) is 117, the αF6P/αFV came out at 0.124 and the αF6P/αFVH was determined as 1.34.
As to B21, the αF6P oxidation activity ratio (crude enzyme; CFP-T7-H20 = 100) (relative (CFP-T7-H20 = 100)) came to 7.
For B22, the Specific activity (U/mg), 1 mM αF6P, purified enzyme amounted to 0.0022 U/mg.
B23 returned a αF6P oxidation activity (crude enzyme; αFVH oxidation activity = 100) (relative (αFVH = 100)) of 0, a αF6P/αFV of 0 and a αF6P/αFVH of 0.
On to B24, for which the αF6P oxidation activity (crude enzyme; αFVH oxidation activity = 100) (relative (αFVH = 100)) worked out at 237, the αF6P/αFV was 0.0144 and the αF6P/αFVH came to 2.37.
